Values quoted from earlier work as cited in publication PMC5800599.

Target: FcγRIIIa/CD16A (Homo sapiens) (UniProt P08637)
Sequence (P08637 17-254): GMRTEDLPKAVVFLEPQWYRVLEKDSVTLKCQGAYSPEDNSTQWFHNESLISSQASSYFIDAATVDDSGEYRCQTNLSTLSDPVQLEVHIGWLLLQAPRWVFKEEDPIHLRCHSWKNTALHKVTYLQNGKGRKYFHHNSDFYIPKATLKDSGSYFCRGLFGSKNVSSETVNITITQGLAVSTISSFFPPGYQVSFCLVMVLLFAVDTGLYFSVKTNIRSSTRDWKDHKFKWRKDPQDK

Kd: 550 nM
Substance: hIgG1 Fc Fc (from UniProt P01857)
